In PMC3078593, “Multifunctional transcription factor TFII-I is an activator of BRCA1 function” (British Journal of Cancer, 2011):

Target: GST-BRCT
Assay: cell-based or functional assay

luciferase activity of 17M8-AdMLP-luc driven by GAL4-BRCT (GAL-BRCT) in COS7 cells, with TFII-I expressed: ≤ 2 fold
B1: GST-tagged TFII-I (wild type) (natural protein, UniProt P78347-2 1-957, looked up)
chain: MAQVAMSTLPVEDEESSESRMVVTFLMSALESMCKELAKSKAEVACIAVYETDVFVVGTERGRAFVNTRKDFQKDFVKYCVEEEEKAAEMHKMKSTTQANRMSVDAVEIETLRKTVEDYFCFCYGKALGKSTVVPVPYEKMLRDQSAVVVQGLPEGVAFKHPENYDLATLKWILENKAGISFIIKRPFLEPKKHVGGRVMVTDADRSILSPGGSCGPIKVKTEPTEDSGISLEMAAVTVKEESEDPDYYQYNIQGSHHSSEGNEGTEMEVPAEDDDYSPPSKRPKANELPQPPVPEPANAGKRKVREFNFEKWNARITDLRKQVEELFERKYAQAIKAKGPVTIPYPLFQSHVEDLYVEGLPEGIPFRRPSTYGIPRLERILLAKERIRFVIKKHELLNSTREDLQLDKPASGVKEEWYARITKLRKMVDQLFCKKFAEALGSTEAKAVPYQKFEAHPNDLYVEGLPENIPFRSPSWYGIPRLEKIIQVGNRIKFVIKRPELLTHSTTEVTQPRTNTPVKEDWNVRITKLRKQVEEIFNLKFAQALGLTEAVKVPYPVFESNPEFLYVEGLPEGIPFRSPTWFGIPRLERIVRGSNKIKFVVKKPELVISYLPPGMASKINTKALQSPKRPRSPGSNSKVPEIEVTVEGPNNNNPQTSAVRTPTQTNGSNVPFKPRGREFSFEAWNAKITDLKQKVENLFNEKCGEALGLKQAVKVPFALFESFPEDFYVEGLPEGVPFRRPSTFGIPRLEKILRNKAKIKFIIKKPEMFETAIKESTSSKSPPRKINSSPNVNTTASGVEDLNIIQVTIPDDDNERLSKVEKARQLREQVNDLFSRKFGEAIGMGFPVKVPYRKITINPGCVVVDGMPPGVSFKAPSYLEISSMRRILDSAEFIKFTVIRPFPGLVINNQLVDQSESEGPVIQESAEPSQLEVPATEEIKETDGSSQIKQEPDPTW
